Experimental data from US20210079109A1 (Regeneron, published 2021).

How the values were obtained:
human CD63 [1] = target: T1, human CD63 (human, UniProt P08962 2-238); test: ECL, LNCAP cells
T1 construct: stably transfected in NIH3T3/hCD63; The cell line is named under assay; also called hCD63
T1 sequence: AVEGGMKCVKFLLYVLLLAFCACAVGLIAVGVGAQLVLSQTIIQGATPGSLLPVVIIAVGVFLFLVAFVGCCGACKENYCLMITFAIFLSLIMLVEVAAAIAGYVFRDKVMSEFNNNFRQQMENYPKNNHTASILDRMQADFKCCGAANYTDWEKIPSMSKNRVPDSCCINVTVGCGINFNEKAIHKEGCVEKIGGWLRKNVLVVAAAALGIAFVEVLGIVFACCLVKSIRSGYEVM
Protocol: (§1) LNCAP cells were determined to have a lower human CD63 copy number than U87MG cells. Non-transfected NIH3T3 cells, which have no detectable expression of human CD63 by fluorescence activated cell sorting (FACS), were included as a negative control.
(§2) Briefly, cell lines were rinsed once in PBS buffer without Ca²⁺/Mg²⁺ and incubated for 10 minutes at 37° C. with Enzyme Free Cell Dissociation Solution (Millipore, Cat #S-004-C) to detach the cells. Cells were then washed once with PBS with Ca²⁺/Mg²⁺ and counted with a Cellometer™ Auto T4 cell counter (Nexcelom Bioscience, LLC). Approximately 2.0×10⁴ NIH3T3/hCD63, LNCAP, U87MG or NIH3T3 cells were seeded separately onto 96-well carbon electrode plates […]) and were then incubated for one hour at 37° C. Nonspecific binding sites were blocked with 2% BSA (w/v) in PBS with Ca²⁺/Mg²⁺ for one hour at room temperature (RT). Solutions containing anti-CD63 antibodies or isotype control antibodies at a range of concentrations (1.7 pM to 100 nM) in 0.5% BSA (w/v) in PBS with Ca²⁺/Mg²⁺, as well as control buffer alone, were then added in duplicate to the plate-bound NIH3T3/hCD63, LNCAP, U87MG or NIH3T3 cells and incubated for one hour at RT. Plates were subsequently washed to remove unbound antibodies using an AquaMax2000 plate washer with a cell washing head (MDS Analytical Technologies). […] Plates were washed and then incubated with Read Buffer (MSD, Cat #R92TD-2) according to the manufacturer's instructions. Luminescent signals were measured using a SECTOR Imager (MSD).

human CD63 [2] = target: T1, human CD63; test: ECL, U87MG cells
Protocol: as §1, §2

human CD63 [3] = target: T1, human CD63; test: ECL, NIH3T3/hCD63 cells
Protocol: as §1, §2

[4] = target: T2, recombinant human CD63 extracellular loop 2 expressed with a C-terminal Myc-Myc-hexahistidine (human); test: SPR Biacore, mAb captured, 25C
T2 construct: also called hCD63 EC loop 2-MMH; human CD63 EC loop 2-MMH
Protocol: (§3) Equilibrium dissociation constants (KD) for different CD63 (EC2) loop reagents binding to purified anti-CD63 monoclonal antibodies were determined using a real-time surface plasmon resonance based Biacore T200 biosensor or Biacore 2000 biosensor. All binding studies were performed in 10 mM HEPES, 150 mM NaCl, 3 mM EDTA, and 0.05% v/v Surfactant Tween-20, pH 7.4 (HBS-ET) running buffer at 25° C. and 37° C. The Biacore CMS sensor chip surface was first derivatized by amine coupling with either a rabbit anti-mouse Fc specific polyclonal antibody (GE Healthcare, Cat #BR100838) or an anti-human Fab kit (GE Healthcare, Cat #28958325) to capture anti-CD63 monoclonal antibodies. […] The association rate (Kₐ) and dissociation rate (kd) were determined by fitting the real-time binding sensorgrams to a 1:1 binding model with mass transport limitation using Scrubber 2.0c curve-fitting software. Binding dissociation equilibrium constant (KD) and dissociative half-life (t½) were calculated from the kinetic rates as: […]
(§4) Binding kinetics parameters for human CD63 EC loop 2 protein binding to different anti-CD63 monoclonal antibodies of the invention at 25° C. and 37° C. are shown in Tables 6 through 9.

[5] = target: T3, recombinant human CD63 extracellular loop 2 expressed with a C-terminal human Fc tag (human); test: SPR Biacore, mAb captured, 25C
T3 construct: also called hCD63 EC loop 2-hFc; human CD63 EC loop 2-Fc
Protocol: as §3, §4

[6] = target: T2, recombinant human CD63 extracellular …; test: SPR Biacore, mAb captured, 37C
Protocol: as §3, §4

[7] = target: T3, recombinant human CD63 extracellular …; test: SPR Biacore, mAb captured, 37C
Protocol: as §3, §4

T2 sequence (chain, as listed by the source limits assumed): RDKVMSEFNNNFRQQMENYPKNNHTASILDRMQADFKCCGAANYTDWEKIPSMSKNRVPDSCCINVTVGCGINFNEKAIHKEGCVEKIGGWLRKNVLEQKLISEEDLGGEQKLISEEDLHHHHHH
T3 sequence (chain, as listed by the source limits assumed): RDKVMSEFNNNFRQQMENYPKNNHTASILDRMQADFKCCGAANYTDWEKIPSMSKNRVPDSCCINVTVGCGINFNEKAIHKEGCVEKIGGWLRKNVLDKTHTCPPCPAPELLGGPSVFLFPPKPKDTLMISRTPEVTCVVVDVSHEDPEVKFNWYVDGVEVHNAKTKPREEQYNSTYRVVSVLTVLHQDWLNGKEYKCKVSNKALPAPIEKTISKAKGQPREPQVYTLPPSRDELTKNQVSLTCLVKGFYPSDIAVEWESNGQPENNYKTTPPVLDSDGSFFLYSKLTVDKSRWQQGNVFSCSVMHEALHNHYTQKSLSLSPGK

B1: H2M12394N (antibody, V domains shown)
VH: QVQLQESGPGLVKPSETLSLTCTVSGGSISSYYWNWIRQSPGKGLEWIGYTKKRSTNYNPSLRSRVTISEDTSKNQFSLKMSSVTAADTAVYYCAKMGWGSHAFDIWGQGTMVTVSS
VL: not shown
notes: also called H2aM12394N
EC50 (human CD63 [1]): 0.75 nM
binding ratio at 3.7 nM vs NIH3T3 (human CD63 [1]): 4 fold
EC50 (human CD63 [2]): 1.4 nM
binding ratio at 3.7 nM vs NIH3T3 (human CD63 [2]): 50 fold
EC50 (human CD63 [3]): 0.38 nM
binding ratio at 3.7 nM vs NIH3T3 (human CD63 [3]): 61 fold
100 nM Ag Bound (RU) [4]: 27 RU
Kd [4]: 9.36 nM
koff [4]: 0.000553 s⁻¹
kon [4]: 59100 M⁻¹ s⁻¹
t1/2 [4]: 21 min
100 nM Ag Bound (RU) [5]: 59 RU
Kd [5]: 1.76 nM
koff [5]: 0.000144 s⁻¹
kon [5]: 81800 M⁻¹ s⁻¹
t1/2 [5]: 80 min
100 nM Ag Bound (RU) [6]: 19 RU
Kd [6]: 76.7 nM
koff [6]: 0.00277 s⁻¹
kon [6]: 36200 M⁻¹ s⁻¹
t1/2 [6]: 4 min
100 nM Ag Bound (RU) [7]: 67 RU
Kd [7]: 1.54 nM
koff [7]: 0.000504 s⁻¹
kon [7]: 327000 M⁻¹ s⁻¹
t1/2 [7]: 23 min

B2: H1M12388N (antibody, V domains shown)
VH: QVQLEESGGGVVKAGGSLRLSCAASGFTFSDYYINWIRQAPGKGLEWVSYINNGGYTIYYADSVKGRFTMSRDNAKNSVYLQMNGLRAEDTAFYYCVRDPRSYYGFDYWGQGTLVTVSS
VL: DIQMTQSPSSLSASVGDRVTITCRASQSISRFLHWYQQKPGKAPKLLIYGASSLQSGVPSRFSGSGSGTDFTLTISTLQPEDFATYYCQQSYSTPPITFGQGTRLEIK
EC50 (human CD63 [1]): 0.25 nM
binding ratio at 3.7 nM vs NIH3T3 (human CD63 [1]): 31 fold
EC50 (human CD63 [2]): 0.3 nM
binding ratio at 3.7 nM vs NIH3T3 (human CD63 [2]): 284 fold
EC50 (human CD63 [3]): 0.52 nM
binding ratio at 3.7 nM vs NIH3T3 (human CD63 [3]): 434 fold
100 nM Ag Bound (RU) [4]: 59 RU
Kd [4]: 0.72 nM
koff [4]: 0.000587 s⁻¹
kon [4]: 815000 M⁻¹ s⁻¹
t1/2 [4]: 20 min
100 nM Ag Bound (RU) [5]: 131 RU
Kd [5]: 0.238 nM
koff [5]: 0.000173 s⁻¹
kon [5]: 728000 M⁻¹ s⁻¹
t1/2 [5]: 67 min
100 nM Ag Bound (RU) [6]: 60 RU
Kd [6]: 5.02 nM
koff [6]: 0.00327 s⁻¹
kon [6]: 651000 M⁻¹ s⁻¹
t1/2 [6]: 4 min
100 nM Ag Bound (RU) [7]: 158 RU
Kd [7]: 0.863 nM
koff [7]: 0.000887 s⁻¹
kon [7]: 1.03e+06 M⁻¹ s⁻¹
t1/2 [7]: 13 min

B3: H1M12386N (antibody, V domains shown)
VH: QVQLEESGGGVVKAGGSLRLSCVASGFTFSDYYINWIRQAPGKGLEWVSYINNGGYTIYYADSVKGRFTMSRDNAKNSVYLEMNGLRAEDTAFYYCVRDPRSYYGFDYWGQGTLVTVSS
VL: DIQMTQSPSSLSASVGDRVTITCRASQSISSYLNWNQQKPGKAPKLLIYVASSLQSGVPSRFSGSGSGTDFTLTISGLQPEDFAPYYCQQSYITPPITFGQGTRLDIK
EC50 (human CD63 [1]): 0.29 nM
binding ratio at 3.7 nM vs NIH3T3 (human CD63 [1]): 16 fold
EC50 (human CD63 [2]): 0.31 nM
binding ratio at 3.7 nM vs NIH3T3 (human CD63 [2]): 129 fold
EC50 (human CD63 [3]): 0.52 nM
binding ratio at 3.7 nM vs NIH3T3 (human CD63 [3]): 220 fold
100 nM Ag Bound (RU) [4]: 65 RU
Kd [4]: 0.676 nM
koff [4]: 0.000365 s⁻¹
kon [4]: 540000 M⁻¹ s⁻¹
t1/2 [4]: 32 min
100 nM Ag Bound (RU) [5]: 160 RU
Kd [5]: 0.173 nM
koff [5]: 0.000113 s⁻¹
kon [5]: 654000 M⁻¹ s⁻¹
t1/2 [5]: 102 min
100 nM Ag Bound (RU) [6]: 65 RU
Kd [6]: 3.61 nM
koff [6]: 0.00235 s⁻¹
kon [6]: 650000 M⁻¹ s⁻¹
t1/2 [6]: 5 min
100 nM Ag Bound (RU) [7]: 170 RU
Kd [7]: 0.685 nM
koff [7]: 0.000631 s⁻¹
kon [7]: 921000 M⁻¹ s⁻¹
t1/2 [7]: 18 min
